T1: ovalbumin (UniProt P01012 2-386)
T1 sequence (looked up): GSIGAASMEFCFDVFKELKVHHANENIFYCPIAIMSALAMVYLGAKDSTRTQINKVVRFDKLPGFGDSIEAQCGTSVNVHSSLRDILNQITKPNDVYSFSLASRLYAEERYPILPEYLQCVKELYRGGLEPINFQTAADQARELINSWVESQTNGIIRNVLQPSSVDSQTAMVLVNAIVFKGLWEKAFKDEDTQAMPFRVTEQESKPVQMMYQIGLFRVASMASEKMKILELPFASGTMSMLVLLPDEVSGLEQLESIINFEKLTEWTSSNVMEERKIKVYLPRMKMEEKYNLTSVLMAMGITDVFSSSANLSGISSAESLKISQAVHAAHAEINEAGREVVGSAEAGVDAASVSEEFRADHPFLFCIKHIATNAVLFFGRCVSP


What was measured:
[1] = biological target: T2, bovine thyroglobulin (Sigma) (bovine, UniProt P01267 20-2769); assay: phage ELISA
T2 construct: the same entry is used

ovalbumin = biological target: T1, ovalbumin; assay: phage ELISA

T2 sequence (P01267 20-2769 limits assumed): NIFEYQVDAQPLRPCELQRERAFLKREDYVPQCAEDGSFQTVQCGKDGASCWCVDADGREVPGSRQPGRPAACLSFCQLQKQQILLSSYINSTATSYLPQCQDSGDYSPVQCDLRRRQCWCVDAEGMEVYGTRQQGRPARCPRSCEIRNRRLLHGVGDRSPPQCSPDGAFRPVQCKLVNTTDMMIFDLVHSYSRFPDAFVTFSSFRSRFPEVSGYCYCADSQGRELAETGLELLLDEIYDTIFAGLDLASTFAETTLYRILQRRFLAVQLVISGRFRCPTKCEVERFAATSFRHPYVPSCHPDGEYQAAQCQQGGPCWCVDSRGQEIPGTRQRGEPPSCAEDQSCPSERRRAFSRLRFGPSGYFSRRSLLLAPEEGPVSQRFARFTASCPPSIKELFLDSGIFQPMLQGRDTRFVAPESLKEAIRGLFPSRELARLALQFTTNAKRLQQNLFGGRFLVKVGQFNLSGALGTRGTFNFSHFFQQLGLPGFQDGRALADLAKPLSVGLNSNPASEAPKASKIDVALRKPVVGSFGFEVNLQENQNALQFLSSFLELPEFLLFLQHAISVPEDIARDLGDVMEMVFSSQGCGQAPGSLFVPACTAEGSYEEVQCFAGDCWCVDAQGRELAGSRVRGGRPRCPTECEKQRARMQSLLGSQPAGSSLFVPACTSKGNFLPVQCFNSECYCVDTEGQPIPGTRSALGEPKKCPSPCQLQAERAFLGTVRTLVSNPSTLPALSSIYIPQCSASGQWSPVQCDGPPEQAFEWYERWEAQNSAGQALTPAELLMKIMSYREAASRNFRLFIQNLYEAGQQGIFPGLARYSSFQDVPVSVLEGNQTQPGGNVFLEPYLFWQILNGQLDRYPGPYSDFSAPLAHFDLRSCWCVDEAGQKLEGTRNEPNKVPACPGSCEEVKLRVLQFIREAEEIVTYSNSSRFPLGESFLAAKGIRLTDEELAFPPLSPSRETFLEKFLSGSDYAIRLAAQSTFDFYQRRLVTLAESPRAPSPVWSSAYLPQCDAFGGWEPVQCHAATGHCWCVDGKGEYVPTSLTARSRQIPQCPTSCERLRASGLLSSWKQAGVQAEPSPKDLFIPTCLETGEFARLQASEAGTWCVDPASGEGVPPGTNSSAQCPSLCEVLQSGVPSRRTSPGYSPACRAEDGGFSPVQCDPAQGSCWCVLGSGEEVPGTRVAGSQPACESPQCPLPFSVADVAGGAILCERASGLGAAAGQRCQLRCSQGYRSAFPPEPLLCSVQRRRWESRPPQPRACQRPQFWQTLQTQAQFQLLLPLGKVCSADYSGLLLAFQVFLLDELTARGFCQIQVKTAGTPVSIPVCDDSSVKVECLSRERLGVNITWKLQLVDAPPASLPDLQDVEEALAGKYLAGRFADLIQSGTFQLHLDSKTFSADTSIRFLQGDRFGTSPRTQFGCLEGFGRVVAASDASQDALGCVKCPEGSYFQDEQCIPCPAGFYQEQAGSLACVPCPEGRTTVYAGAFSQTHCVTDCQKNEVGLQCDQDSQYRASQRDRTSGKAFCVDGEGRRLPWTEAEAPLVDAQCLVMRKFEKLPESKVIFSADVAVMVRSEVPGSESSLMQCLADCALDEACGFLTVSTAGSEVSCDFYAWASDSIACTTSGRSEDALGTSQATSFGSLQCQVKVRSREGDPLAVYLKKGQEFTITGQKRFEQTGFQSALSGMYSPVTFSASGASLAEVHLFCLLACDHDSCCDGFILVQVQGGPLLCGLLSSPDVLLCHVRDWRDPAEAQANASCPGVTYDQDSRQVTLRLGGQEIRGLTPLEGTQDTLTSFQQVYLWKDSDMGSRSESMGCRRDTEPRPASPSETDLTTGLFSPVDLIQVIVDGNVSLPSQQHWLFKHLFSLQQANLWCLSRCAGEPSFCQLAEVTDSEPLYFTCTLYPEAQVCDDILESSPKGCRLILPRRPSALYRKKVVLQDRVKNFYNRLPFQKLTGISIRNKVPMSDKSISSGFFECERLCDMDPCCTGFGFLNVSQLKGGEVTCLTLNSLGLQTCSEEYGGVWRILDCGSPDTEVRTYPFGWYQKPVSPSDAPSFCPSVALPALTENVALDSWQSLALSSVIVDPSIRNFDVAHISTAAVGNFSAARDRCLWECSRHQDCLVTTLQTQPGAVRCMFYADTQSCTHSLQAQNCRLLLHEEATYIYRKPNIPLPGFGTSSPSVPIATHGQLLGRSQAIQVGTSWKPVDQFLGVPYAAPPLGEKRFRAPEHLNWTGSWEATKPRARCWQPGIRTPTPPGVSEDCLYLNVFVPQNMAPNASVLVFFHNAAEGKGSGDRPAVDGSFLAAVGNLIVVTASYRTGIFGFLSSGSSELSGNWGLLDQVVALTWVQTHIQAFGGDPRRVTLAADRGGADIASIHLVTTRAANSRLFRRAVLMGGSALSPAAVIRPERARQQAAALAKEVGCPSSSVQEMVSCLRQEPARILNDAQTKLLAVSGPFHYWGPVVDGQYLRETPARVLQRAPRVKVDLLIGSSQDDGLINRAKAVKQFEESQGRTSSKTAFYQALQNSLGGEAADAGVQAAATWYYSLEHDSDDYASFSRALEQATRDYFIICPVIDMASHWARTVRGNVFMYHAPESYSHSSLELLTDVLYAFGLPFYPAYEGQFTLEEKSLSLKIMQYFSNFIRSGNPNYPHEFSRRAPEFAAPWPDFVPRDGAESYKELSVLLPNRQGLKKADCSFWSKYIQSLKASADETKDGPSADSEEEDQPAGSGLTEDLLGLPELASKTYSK

| Binder | binding result [1] | binding result (ovalbumin) |
| --- | --- | --- |
| human scFv VH3.5/VL3.5 (BSA binder from unimmunized library) (scFv, V domains shown) VH: QVQLVQSGGGVVQPGRSLRLSCAASGFTFSSYGMHWVRQAPGKGLEWVAVISYDGSNKYYADSVKGRFTISRDNSKNTLYLQMNSLRAEDTAVYYCAKTGYSSGWGYFDYWGQGT VL: SSELTQDPAVSVALGQTVRITCQGDSLRSYYASWYQQKPGQAPVLVIYGKNNRPSGIPDRFSGSSSGNTASLTITGAQAEDEADYYCNSRDSSGNHVVFGG | no binding (tested: 100 ug/ml coating) | no binding (tested: 100 ug/ml coating) |
| human scFv VH13.1/VL13.1 (lysozyme binder from unimmunized library) (scFv, V domains shown, scFv on phage from pHEN1) VH: QVQLVQSGAEVKKPGQSLMISCQGSGYSFSNYWIGWVRQMPGKGLEWMGIIYPGDSDTRYSPSFQGQVTISADKSISTAYLHWSSLKASDTALYYCARLVGGTPAYWGQGT VL: HVILTQPASVSGSPGQSITISCTGSSRDVGGYNYVSWYQHHPGKAPKLLISEVTNRPSGVSNRFSGSKSGNTASLTISGLQAEDEADYFCASYTSSKTYVFGG | no binding (tested: 100 ug/ml coating) | no binding (tested: 100 ug/ml coating) |
| human scFv VH14.1/VL14.1 (lysozyme binder from unimmunized library) (scFv, V domains shown, scFv on phage from pHEN1) VH: QVQLQESGPGLVKPSETLSLVCTVSGGSLSFSYWGWIRQPPGKGLEWIGYISHRGTDYNSSLQSRVTISADTSKNQFSLKLSSVTAADTAVYYCARSFSNSFFFGYWGQGT VL: SSELTQDPAVSVAFGQTVRITCQGDSLRSSYASWYQQKPGQAPLLVIYGENSRPSGIPDRFSGSSSGNTASLTITGAQAEDEADYYCNSRDSRGTHLEVFGG | no binding (tested: 100 ug/ml coating) | no binding (tested: 100 ug/ml coating) |
